Test results from patent US20260218147, “CAS ENDONUCLEASE AND GUIDE RNA VARIANTS WITH IMPROVED EFFICIENCY” (PIONEER HI-BRED INTERNATIONAL, INC., published 2026).

Assays:
[1] = molecular target: T1, Cas-alpha 10 base variant (synthetic construct, UniProt P0DW62 SEQ:1-497); test: cell_activity; PAM GTTC; HEK293T 37 C; conditions: tags: SV40 NLS; chain copies: 2
T1 chain: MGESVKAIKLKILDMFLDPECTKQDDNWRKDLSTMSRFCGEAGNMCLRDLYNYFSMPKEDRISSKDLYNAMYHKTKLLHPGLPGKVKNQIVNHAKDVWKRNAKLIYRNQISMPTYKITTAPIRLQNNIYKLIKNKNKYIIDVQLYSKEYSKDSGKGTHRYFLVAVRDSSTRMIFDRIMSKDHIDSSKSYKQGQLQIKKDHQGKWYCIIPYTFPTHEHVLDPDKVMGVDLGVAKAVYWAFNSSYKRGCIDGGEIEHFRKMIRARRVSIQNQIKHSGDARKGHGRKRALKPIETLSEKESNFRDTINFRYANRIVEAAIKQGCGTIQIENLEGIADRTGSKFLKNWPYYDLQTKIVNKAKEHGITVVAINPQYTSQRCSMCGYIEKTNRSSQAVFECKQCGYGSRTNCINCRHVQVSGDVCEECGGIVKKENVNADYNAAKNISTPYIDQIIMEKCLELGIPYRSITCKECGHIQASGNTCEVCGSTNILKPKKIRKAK
Protocol: (§1) Human cell transformation was carried-out by culturing HEK293T cells (ATCC catalog umber CRL-3216) in Dulbecco's Modified Eagle Medium (DMEM) supplemented with 10% fetal bovine serum (FBS) and penicillin (100 U/ml)/streptomycin (100 μg/ml) at 37° C. in 5% CO₂. Cells were then seeded in 96-well plates at a 1.8×10^4 cells/well density. After approximately one day growth, cells were transfected with plasmids encoding nuclease and U6-guide RNA expression cassettes using FuGENE HD (Promega) per manufacturer's instruction. Briefly, on the day of transfection, 0.450 μg of plasmid DNA ([…] of Cas-alpha nuclease and 0.099 μg of sgRNA expression cassettes) was diluted in a final volume of 20 μl of room temperature Opti-MEM (Gibco), mixed, and 1.35 μl of FuGENE HD was added directly to the solution (not allowing undiluted transfection reagent to contact the sides or bottom of the tube or plate) to achieve a 3:1 ratio of transfection reagent to plasmid DNA. The resulting mixture was then incubated for 10 mins at room temperature, 20 μl added to each HEK293T seeded well, and mixed gently by pipetting or by using a shaker. Transfected cells were then grown at 37° C. with 5% CO₂ for 4 days and GFP expression monitored by fluorescence microscope. Experiments were performed with three to twelve independent replicates and transfections where Cas-alpha 10 endonuclease and/or sgRNA plasmid DNA expression cassettes were omitted served as negative controls.
(§2) For human cells, cells were washed twice with PBS two to four days after transfection and lysed using lysis buffer (50 mM Tris, 150 mM NaCl, 0.2% Tween 20, 0.2 mg/ml Proteinase K). Next, RUNX and WTAP targets were evaluated for the presence of targeted mutations using T7 endonuclease I (Guschin, D. Y. et al. (2010) In: Mackay J., Segal D. (eds) Engineered Zinc Finger Proteins. Methods in Molecular Biology (Methods and Protocols), vol 649. Humana Press, Totowa, NJ) and Illumina deep sequencing as described above.

[2] = molecular target: T2, Cas-alpha 10 wild type (Cas12f) (Syntrophomonas palmitatica, UniProt P0DW62 SEQ:1-497); test: cell_activity; PAM GTTC; HEK293T 37 C; conditions: tags: SV40 NLS; chain copies: 2
T2 sequence: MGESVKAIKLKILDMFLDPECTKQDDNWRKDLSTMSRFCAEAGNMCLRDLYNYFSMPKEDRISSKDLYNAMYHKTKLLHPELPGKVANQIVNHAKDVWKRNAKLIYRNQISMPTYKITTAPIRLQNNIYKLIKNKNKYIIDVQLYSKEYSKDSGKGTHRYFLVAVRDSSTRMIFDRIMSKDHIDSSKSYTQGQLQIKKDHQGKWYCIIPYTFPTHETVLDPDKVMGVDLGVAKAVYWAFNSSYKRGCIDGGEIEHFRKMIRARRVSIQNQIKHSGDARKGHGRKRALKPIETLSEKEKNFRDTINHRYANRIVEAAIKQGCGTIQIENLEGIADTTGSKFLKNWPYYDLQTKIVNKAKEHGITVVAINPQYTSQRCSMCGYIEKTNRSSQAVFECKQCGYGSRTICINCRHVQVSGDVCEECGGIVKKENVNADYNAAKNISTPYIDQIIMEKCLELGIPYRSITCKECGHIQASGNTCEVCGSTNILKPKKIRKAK
Protocol: as §1, §2

[3] = molecular target: T3, Cas-alpha 10 variant T34E+M45S+G81E+G470D (SEQ ID NO:362) (synthetic construct, UniProt P0DW62 SEQ:1-497, D54F); test: cell_activity; PAM GTTC; HEK293T 37 C; conditions: tags: SV40 NLS, T2A-GFP; chain copies: 2
T3 sequence: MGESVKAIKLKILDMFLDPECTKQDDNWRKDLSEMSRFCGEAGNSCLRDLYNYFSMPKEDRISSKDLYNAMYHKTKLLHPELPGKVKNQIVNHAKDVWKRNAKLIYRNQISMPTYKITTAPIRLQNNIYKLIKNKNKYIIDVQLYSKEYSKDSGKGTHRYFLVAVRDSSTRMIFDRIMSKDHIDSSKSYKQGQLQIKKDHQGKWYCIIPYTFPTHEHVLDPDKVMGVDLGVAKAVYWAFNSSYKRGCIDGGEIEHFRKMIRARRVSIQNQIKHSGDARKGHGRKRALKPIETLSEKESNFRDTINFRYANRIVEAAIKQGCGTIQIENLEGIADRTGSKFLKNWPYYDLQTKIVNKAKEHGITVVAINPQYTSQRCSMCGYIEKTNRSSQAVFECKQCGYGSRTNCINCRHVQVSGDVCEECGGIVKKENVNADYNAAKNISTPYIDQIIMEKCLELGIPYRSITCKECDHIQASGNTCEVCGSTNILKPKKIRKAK
Protocol: as §1, §2

[4] = molecular target: T4, Cas-alpha 10 variant G81E (synthetic construct, UniProt P0DW62 SEQ:1-497); test: cell_activity; PAM GTTC; maize, 3x4 hr 45 C; conditions: tags: SV40 NLS; chain copies: 2
T4 chain: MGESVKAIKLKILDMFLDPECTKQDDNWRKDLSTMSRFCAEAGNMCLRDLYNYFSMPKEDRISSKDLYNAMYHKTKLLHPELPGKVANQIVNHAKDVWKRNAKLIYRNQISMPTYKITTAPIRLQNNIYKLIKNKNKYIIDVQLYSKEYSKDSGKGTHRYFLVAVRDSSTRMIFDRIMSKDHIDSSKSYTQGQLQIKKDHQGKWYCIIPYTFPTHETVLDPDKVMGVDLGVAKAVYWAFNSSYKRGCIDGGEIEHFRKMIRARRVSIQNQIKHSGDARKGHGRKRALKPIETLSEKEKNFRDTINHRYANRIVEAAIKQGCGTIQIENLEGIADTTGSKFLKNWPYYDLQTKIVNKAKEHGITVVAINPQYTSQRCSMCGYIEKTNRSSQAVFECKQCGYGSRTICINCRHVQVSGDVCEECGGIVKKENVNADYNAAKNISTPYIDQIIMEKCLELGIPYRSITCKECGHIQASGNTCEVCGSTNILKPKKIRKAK
Protocol: The resulting T-DNA was then placed into LBA4404, a thymine auxotrophic strain of Agrobacterium tumefaciens, containing Vir9, a separate plasmid encoding the Bo542 virulence genes (US20170121722A1 and WO 2017/078836). The resulting Agrobacterium strain was then used to transform nine-to-ten-day old immature maize embryos (approximately 2 mm in size) by submersion in 700A liquid media containing the strain at an optical density (OD) of 0.4 to 2.0 at 550 nm for 5 min. and then removed from the media and placed on solid co-cultivation medium overnight at 21° C. in the dark. Following T-DNA delivery, embryos are transferred to resting media, 13266R, and grown in the dark at 28° C. for 5-7 days. Next, coleoptiles were removed, and embryos transferred to selection media for 11-16 days and kept in the dark at 28° C. They were then moved to maturation media and incubated for 14-25 days in the dark at 28° C. and then subject to light for 2-5 days. Next, they were moved to rooting media and incubated at 26-28° C. under light for 14-28 days refreshing media as needed. To examine Cas-alpha nuclease-guide RNA activity, transformed tissue was incubated at 28° C., standard for Agrobacterium transformation, or at a range of temperatures lower or higher than 28° C.
In a third study, the efficiency of targeted mutagenesis of Cas-alpha 10 endonuclease variants, SEQ ID NOs:14, 48, 60, and 157, were compared when tested with two sgRNA recognition domains, SEQ ID NOs:61 and 327, at two target sites, MS26 and D8. Experiments were carried-out in Zea mays using Agrobacterium (Agro) transformation as described in Example 2. Two temperature regimens were performed. The first subjected Agro transformed embryos (once per day) to 45° C. for 4 hrs on days 3, 4, and 5 (3×4 hr 45° C.) after infection and the second to a continuous incubation at 37° C. on days 1-3 (1-3d 37° C.) following infection. For both regimens, embryos were placed at 28° C. before and after temperature treatment. […]

Binder	activity [1]	activity [2]	activity [3]	activity [4]
sgRNA RUNX (original) ; RUNX target (ssRNA ; dsDNA) RNA: AUUUACUCUGUUUCGCGCGCCAGGGCAGUUAGGUGCCCUAAAAGAGCGAAGUGGCCGAAAGGAAAGGCUAACGCUUCUCUAACGCUACGGCGACCUUGGCGAAAUGCCAUCAAUACCACGCGGCCCGAAAGGGUUCGCGCGAAACUGAGUAAUGAAAGUCGCAUCUUGCGUAAGCGCGUGGAUUGAAACCCUGUCUUGUUUGUGAGAGG DNA 1: GTTCCCTGTCTTGTTTGTGAGAGG DNA 2: CCTCTCACAAACAAGACAGGGAAC	8.77 % targeted mutagenesis	5.68 % targeted mutagenesis	–	–
sgRNA RUNX Design 5_157-159 ; RUNX target (ssRNA ; dsDNA) RNA: GUUUCGCGCGCCAGGGCAGUUAGGUGCCCUAAAAGAGCGAAGUGGCCGAAAGGAAAGGCUAACGCUUCUCUAACGCUACGGCGACCUUGGCGAAAUGCCAUCAAUACCACGCGGCCCGAAAGGGUUCGCGCGAAACGAACGCAUCUUGCGUAAGCGCGUGGAUUGAAACCCUGUCUUGUUUGUGAGAGG DNA 1: GTTCCCTGTCTTGTTTGTGAGAGG DNA 2: CCTCTCACAAACAAGACAGGGAAC	19.6 % targeted mutagenesis	–	24.2 % targeted mutagenesis	–
sgRNA MS26 (original) ; MS26 target (ssRNA ; dsDNA) RNA: AUUUACUCUGUUUCGCGCGCCAGGGCAGUUAGGUGCCCUAAAAGAGCGAAGUGGCCGAAAGGAAAGGCUAACGCUUCUCUAACGCUACGGCGACCUUGGCGAAAUGCCAUCAAUACCACGCGGCCCGAAAGGGUUCGCGCGAAACUGAGUAAUGAAAGUCGCAUCUUGCGUAAGCGCGUGGAUUGAAACAAGUUCACGGCGUUCCAGGC DNA 1: GTTCAAGTTCACGGCGTTCCAGGC DNA 2: GCCTGGAACGCCGTGAACTTGAAC	–	–	–	6.62 % targeted mutagenesis
